Positions count from the first letter of the chain named. Blank lines part the entries; values can stand above or below the binder they belong to.
Tests used:
[1] = target: T1, Human TREM2 protein, on cells (human, UniProt Q9NZC2 19-230); experiment: flow cytometry titration on hTREM2-HEK cells
T1 construct: Wild type human TREM2 expressed with DAP12 on HEK293 cells (clone H6), or endogenous on primary human monocyte-derived macrophages; also called hTREM2-HEK; HEK293-H6
T1 sequence: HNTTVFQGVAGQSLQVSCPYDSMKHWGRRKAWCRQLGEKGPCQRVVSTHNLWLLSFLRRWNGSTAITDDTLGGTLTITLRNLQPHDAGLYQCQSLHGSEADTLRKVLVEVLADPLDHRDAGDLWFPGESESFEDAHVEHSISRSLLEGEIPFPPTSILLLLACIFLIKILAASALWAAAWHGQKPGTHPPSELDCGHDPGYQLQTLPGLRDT
Description: (§1) FIGS. 1A-1D. […] (A) Anti-TREM2 antibodies were screened for binding to HEK cells expressing human TREM2 (unlabeled) and mouse TREM2 HEK expressing cells (labeled with NucBlue). Antibody binding was detected with a secondary anti-mouse multiple adsorption antibody conjugated to APC. […] (B) Parental HEK-GFP cells were used as a negative control to rule out non-specific binding. (C) Anti-TREM2 antibody surface binding dose response in hTREM2-HEK cells. Anti-TREM2 antibodies were titrated for binding to HEK cells expressing human TREM2. Antibody binding was detected with a secondary anti-mouse multiple adsorption antibody conjugated to APC. […] Mouse TREM2 HEK cells were titrated for binding as in (C).
(§2) After labeling, cells were washed twice with 1×PBS. […] Mixed cell lines were seeded at 300,000 cells per well in a 96-well round-bottom and incubated 20 minutes at room temperature. After incubation, cells were centrifuged and test anti-TREM2 antibodies were added, then incubated for 45 minutes on ice. After incubation, cells were centrifuged and washed with FACS buffer three times.

[2] = target: T1, Human TREM2 protein, on cells; experiment: flow cytometry, HEK293 cells overexpressing human TREM2
Procedure: as §2
(§3) The data in Table 2 is presented as fold over binding (FOB).

[3] = target: T2, Mouse TREM2, on cells (mouse, UniProt Q99NH8 19-227); experiment: flow cytometry titration on mTREM2-293F cells
T2 construct: whole, on cells; also called mouse TREM2 HEK
T2 sequence (looked up): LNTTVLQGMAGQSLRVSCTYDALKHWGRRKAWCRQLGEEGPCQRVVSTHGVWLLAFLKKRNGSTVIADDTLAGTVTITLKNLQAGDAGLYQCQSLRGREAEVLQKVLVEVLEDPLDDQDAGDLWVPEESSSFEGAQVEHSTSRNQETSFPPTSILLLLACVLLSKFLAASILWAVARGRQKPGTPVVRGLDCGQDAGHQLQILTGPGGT
Description: as §1, §2

[4] = target: T2, Mouse TREM2, on cells; experiment: flow cytometry, 293F cells overexpressing mouse TREM2
Procedure: as §2, §3

[5] = target: T1, Human TREM2 protein, on cells; experiment: cell binding, human TREM2-expressing HEK cells, flow cytometry titration
[6] = target: T1, Human TREM2 protein, on cells; experiment: cell-based or functional assay
[7] = target: T3, His-tagged TREM2 ECD (ecto domain residues 19-172 of human TREM2, C-terminal 6X-His tag) (human, UniProt Q9NZC2 19-172); experiment: Biacore T200, antibody captured, antigen injected, 1:1 model
T3 construct: Made in Expi293F cells; the mouse Ig kappa secretion signal is not part of the mature protein; Biotinylated for the Octet binning; also called TREM2-His; TREM2-His protein
T3 sequence: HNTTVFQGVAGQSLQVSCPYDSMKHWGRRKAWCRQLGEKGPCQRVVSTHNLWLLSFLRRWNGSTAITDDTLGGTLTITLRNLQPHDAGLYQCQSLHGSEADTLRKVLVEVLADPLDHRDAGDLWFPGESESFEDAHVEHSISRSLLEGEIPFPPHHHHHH
Procedure: (§4) To measure TfR binding, anti-human-Fab was immobilized on a CM5 chip, and the TREM2/TfR-binding protein was captured. Full-length human TfR or human TfR apical domain at serial dilution (e.g., concentrations of 1-1000 nM) was flowed over the chip (180 second association time) and then allowed to dissociate. Fitting was performed using a 1:1 binding model. To measure TREM2 binding, anti-human-Fc antibody was immobilized on a CM5 chip, and the TREM2/TfR-binding protein was captured. A range of concentrations of recombinant TREM2-His protein were flowed over the chip, and allowed to associate and dissociate. The resulting sensograms were fitted using a 1:1 Langmuir model to estimate kₒₙ and koff (FIG. 10).
(§5) Biacore Series S CM5 sensor chips were immobilized with a mixture of two monoclonal mouse anti-Fab antibodies (Human Fab capture kit from GE Healthcare). Serial 3-fold dilutions of each antigen were injected at a flow rate of 30 μL/min. The binding of the antigens to captured antibody was monitored for 30 to 180 seconds and then their dissociation was monitored for 30-300 seconds in HBS-EP+running buffer (GE, # BR100669). Binding response was corrected by subtracting the RU from a blank flow cell. A 1:1 Languir model of simultaneous fitting of kₒₙ and koff was used for kinetics analysis.

[8] = target: T3, His-tagged TREM2 ECD (ecto domain …); experiment: Table 1 Kd; Biacore, TREM2-His analyte (presumed)
Procedure: Anti-murine Fc antibody (obtained from GE Healthcare) was immobilized on the surface of a CM5 chip (obtained from GE Healthcare) through amine-coupling to reach about 6,000 to 8,000 response units (RU). The surface was activated by injection of a mixture of 1-ethyl-3-(3-dimethylaminopropyl)-carbodiimide (EDC) and N-hydroxysuccinimide (NHS), both obtained from GE Healthcare, for 7 minutes. Anti-murine Fc antibody was diluted in sodium acetate (pH 5.0) at 25 μg/mL and injected for 10 minutes at a flow rate of 5 μL/minute, followed by injection of ethanolamine (obtained from GE Healthcare) for 7 minutes.
Purified anti-TREM2 hybridoma (20 μg/mL) was captured to reach 1000-1500 RU. A range of serially-diluted TREM2-His protein (e.g., 3.4 nM to 300 nM) was injected at a flow rate of 30 μL/minute, using either single-cycle kinetics methods. Sensorgrams were fitted using a 1:1 Langmuir model to estimate kₒₙ and koff.

[9] = target: T1, Human TREM2 protein, on cells; experiment: cell-based or functional assay; remark: listed apart in the source
[10] = target: T2, Mouse TREM2, on cells; experiment: Table 5, cell binding: Mouse TREM2 HEK
[11] = target: T4, Human TREM2 synthetic 9-mer peptide DLWFPGESE (human); experiment: X-ray co-crystal structure
T4 construct: also called TREM2 peptide; TREM2 9-mer peptide
T4 peptide: DLWFPGESE
Description: The synthetic 9-mer peptide […] (SEQ ID NO:335), corresponding to amino acid residues 140-148 of human TREM2 (according to UniProtKB entry TREM2_HUMAN) was used for co-crystallization.

[12] = target: T5, Human transferrin receptor apical domain (human, UniProt P02786 198-378, limits assumed); experiment: Biacore T200, antibody captured, antigen injected, 1:1 model
T5 construct: also called hTfR apical domain; TfR apical domain
Procedure: as §4, §5

T5 sequence (P02786 198-378 limits assumed): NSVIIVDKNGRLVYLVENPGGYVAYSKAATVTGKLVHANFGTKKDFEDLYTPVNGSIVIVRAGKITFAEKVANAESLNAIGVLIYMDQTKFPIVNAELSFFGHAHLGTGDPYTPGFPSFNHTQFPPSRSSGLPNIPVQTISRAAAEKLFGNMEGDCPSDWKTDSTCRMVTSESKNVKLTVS

B1: RS9.F6 (antibody, V domains shown)
VH: QVQLQQPGAELVKPGASVKLSCKASGYTFTSYWMHWVKQSPGRGLEWIGRSDPTTGGTNYNEKFKTKATLTVDKPSSTAYMQLSSLTSDDSAVYYCVRTSGTGDYWGQGTSLTVSS
VL: DVVMTQTPLSLPVSLGDQASISCRSSQSLVHNNGNTFLHWYLQKPGQSPKLLIYKVSNRFSGVPDRFSGSGSGTDFTLKISRVEAEDLGVYFCSQTTHVPPTFGGGTKLEIK
EC50 [1]: < 2 nM
FOB (fold over binding) [2]: 13.2 fold
EC50 [3]: < 8 nM
FOB (fold over binding) [4]: 73 fold
EC50 [5]: 1.62 nM
pSyk FOB (30 nM Ab) [6]: 8.49 fold over background
Kd [7]: 2.3 nM
koff [7]: 0.00034 s⁻¹
kon [7]: 150000 M⁻¹ s⁻¹
Kd [8]: 0.733 nM
STREM2 decrease (nM), EC50 [9]: 0.3 nM
pSyk (nM), EC50 [9]: 15.9 nM

B2: 24B4.A1 (antibody, V domains shown)
VH: QVHLQQSGSELRSPGSSVKLSCKDFDSEVFPISYMSWIRQKPGHGFEWIGDILPSIGGRIYGVKFEDRATLDADTVSNTAYLELNSLTSEDSAIYYCARKDYGSLAYWGQGTLVTVSA
VL: B1 VL with N32I, F37Y, H39Q, Y41F, D75A, T96S, P101Y
notes: Mouse hybridoma antibody, Ig2a, k; same entries as 26E2.A3; also called RS8.24B4.A1
FOB (fold over binding) [2]: 8.6 fold
binding result [10]: no binding
FOB (fold over binding) [4]: 1.5 fold
EC50 [5]: 7.5 nM
pSyk FOB (30 nM Ab) [6]: 17.3 fold over background
Kd [8]: 12.4 nM
pSyk (nM), EC50 [9]: 49.8 nM

B5: RS9.F10 (antibody, V domains shown)
VH: B1 VH
VL: B1 VL
notes: same entries as RS9.F6; also called RS.F10
EC50 [1]: < 2 nM
FOB (fold over binding) [2]: 12.9 fold
EC50 [3]: < 8 nM
FOB (fold over binding) [4]: 75.8 fold
EC50 [5]: 1.54 nM
pSyk FOB (30 nM Ab) [6]: 9.89 fold over background
Kd [8]: 0.852 nM
pSyk (nM), EC50 [9]: 20.5 nM

Second part, the binder after the results:

binding result [11]: binds
B3: F6 Fab (Fab fragment of anti-TREM2 antibody RS9.F6) (Fab, V domains shown)
VH: B1 VH
VL: B1 VL
notes: Fab expressed in Expi-293 cells; also called TREM2 Fab

Kd [12]: 110 nM
koff [12]: 0.19 s⁻¹
kon [12]: 1.7e+06 M⁻¹ s⁻¹
Kd [7]: 2.6 nM
koff [7]: 0.00038 s⁻¹
kon [7]: 150000 M⁻¹ s⁻¹
B4: RS9.F6/3C.35.21.17 (bispecific antibody, human IgG1, L234A L235A)
heavy 1: QVQLQQPGAELVKPGASVKLSCKASGYTFTSYWMHWVKQSPGRGLEWIGRSDPTTGGTNYNEKFKTKATLTVDKPSSTAYMQLSSLTSDDSAVYYCVRTSGTGDYWGQGTSLTVSSASTKGPSVFPLAPSSKSTSGGTAALGCLVKDYFPEPVTVSWNSGALTSGVHTFPAVLQSSGLYSLSSVVTVPSSSLGTQTYICNVNHKPSNTKVDKKVEPKSCDKTHTCPPCPAPEAAGGPSVFLFPPKPKDTLMISRTPEVTCVVVDVSHEDPEVKFNWYVDGVEVHNAKTKPREEQYNSTYRVVSVLTVLHQDWLNGKEYKCKVSNKALGAPIEKTISKAKGQPREPQVYTLPPSRDELTKNQVSLWCLVKGFYPSDIAVLWESYGTEWASYKTTPPVLDSDGSFFLYSKLTVTKEEWQQGFVFSCSVMHEALHNHYTQKSLSLSPGK
heavy 2: QVQLQQPGAELVKPGASVKLSCKASGYTFTSYWMHWVKQSPGRGLEWIGRSDPTTGGTNYNEKFKTKATLTVDKPSSTAYMQLSSLTSDDSAVYYCVRTSGTGDYWGQGTSLTVSSASTKGPSVFPLAPSSKSTSGGTAALGCLVKDYFPEPVTVSWNSGALTSGVHTFPAVLQSSGLYSLSSVVTVPSSSLGTQTYICNVNHKPSNTKVDKKVEPKSCDKTHTCPPCPAPEAAGGPSVFLFPPKPKDTLMISRTPEVTCVVVDVSHEDPEVKFNWYVDGVEVHNAKTKPREEQYNSTYRVVSVLTVLHQDWLNGKEYKCKVSNKALGAPIEKTISKAKGQPREPQVYTLPPSRDELTKNQVSLSCAVKGFYPSDIAVEWESNGQPENNYKTTPPVLDSDGSFFLVSKLTVDKSRWQQGNVFSCSVMHEALHNHYTQKSLSLSPGK
light: B1 VL
notes: second: RS9.F6 Fd on Fc with LALAPG and hole mutations; Vectors co-transfected 1:1:2; also called RS9.F6/3C35.21.17_LALAPG; ATV-Anti-TREM2

FOB (fold over binding) [2]: 12.8 fold
binding result [10]: no binding
FOB (fold over binding) [4]: 1.7 fold
EC50 [5]: 4.09 nM
pSyk FOB (30 nM Ab) [6]: 6.56 fold over background
Kd [8]: 2.19 nM
pSyk (nM), EC50 [9]: 456 nM
B6: 54C2.A1 (antibody, V domains shown)
VH: B2 VH with S33A, I38V, G58R, R68K, A98T
VL: B1 VL with N32I, F37Y, H39Q, K79R, T96S, V99L, P101Y
notes: Mouse hybridoma antibody, Ig2b, k; also called RS8.54C2.A1

Reference: patent US20200277373A1 (DENALI THERAPEUTICS, published 2020)
